Assay results reported in patent publication US20120244080A1 (GEORGIA STATE UNIVERSITY RESEARCH FOUNDATION, published 2012).

B1: Fusion Protein Cal.GLP (human Calbindin D9k-GLP-1 fusion protein) (designed binder)
chain: MSTKKSPEELKRIFEKYAAKEGDPDQLSKDELKLLIQAEFPSLLKGPNTLDDLFQELDKNGHAEGTFTSDVSSYLEGQAAKEFIAWLVKGRG
B2: Human Calbindin D9k (other)
chain: STKKSPEELKRIFEKYAAKEGDPDQLSKDELKLLIQAEFPSLLKGPNTLDDLFQELDKNGDGEVSFEEFQVLVKKISQ
notes: Negative control and parental host protein

Key:
[1] = target: T1, GLP-1 receptor (GLP-1R) on rat insulinoma RINm5F cells (rat (RINm5F rat insulinoma cells), UniProt P32301 22-463); assay: cell-based or functional assay
T1 sequence (looked up): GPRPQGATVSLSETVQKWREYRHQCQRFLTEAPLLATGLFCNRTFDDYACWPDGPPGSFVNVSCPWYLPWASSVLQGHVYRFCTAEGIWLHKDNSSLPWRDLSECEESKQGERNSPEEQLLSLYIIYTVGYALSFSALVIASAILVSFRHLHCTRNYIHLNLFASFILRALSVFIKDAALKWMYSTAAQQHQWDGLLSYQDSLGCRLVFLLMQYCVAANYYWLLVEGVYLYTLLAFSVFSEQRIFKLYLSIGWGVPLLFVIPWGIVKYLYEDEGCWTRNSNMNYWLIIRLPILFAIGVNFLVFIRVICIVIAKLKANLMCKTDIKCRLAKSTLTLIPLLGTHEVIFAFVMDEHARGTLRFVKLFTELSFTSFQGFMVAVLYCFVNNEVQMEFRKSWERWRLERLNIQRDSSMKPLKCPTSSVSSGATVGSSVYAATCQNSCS

[2] = target: T1, GLP-1 receptor (GLP-1R) on rat …; assay: immunofluorescence staining of RINm5F cells (GLP-1R expressing) after 30 min at 37 °C, detected with rabbit polyclonal anti-calbindin D9k
Description: The cells were extensively washed after 30 min treatments under 37° C. in microscopic chamber slides and subsequently fixed. […] The light shading represents antibody staining.
It is well known that GLP-1R is expressed in RINm5F but not in CHO cells. […] Similar binding analyses were carried out with RINm5F cells and a […] (αTC1).

Binder | intracellular cAMP level in rat insulinoma RINm5F cells (Lance cAMP 384 kit), IC50 [1] | binding result [2]
B1 | ~20 nM | –
B2 | – | no binding (tested: 50 µM)
